Laboratory results from patent US20020193304.

Target: CD87 (UniProt Q03405)
UniProt Q03405, sequence (Q03405 whole entry, looked up): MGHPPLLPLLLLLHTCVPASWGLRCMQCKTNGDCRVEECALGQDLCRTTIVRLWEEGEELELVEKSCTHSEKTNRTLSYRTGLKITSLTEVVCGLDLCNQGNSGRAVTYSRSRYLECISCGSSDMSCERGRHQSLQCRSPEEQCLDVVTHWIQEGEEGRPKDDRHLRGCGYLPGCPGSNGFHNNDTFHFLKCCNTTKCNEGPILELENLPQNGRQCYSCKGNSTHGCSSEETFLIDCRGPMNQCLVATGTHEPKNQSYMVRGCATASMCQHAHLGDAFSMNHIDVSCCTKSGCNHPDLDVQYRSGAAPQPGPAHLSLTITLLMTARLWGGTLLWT

high molecular weight urokinase-type plasminogen activator (HMW-uPA)
anti-HIV activity (p17) of gel filtration fractions containing HMW-uPA (Nos. 15-18), co-culture assay: also were found to have anti-HIV activity (p17), thought that was weaker than ATF
